Data as given in the Human Domainome abundance scans (Beltran et al. 2025).
± gives the uncertainty stated by the source.

B1: Endonuclease CUE2, residues 9 to 47; numbered along this chain, P36075 (parent)
chain: HESKLSILMDMFPAISKSKLQVHLLENNNDLDLTIGLLL

Variants of: B1
Experiment: abundance fitness (aPCA) (normalised: wild type 0, dead -1); higher = more abundant; growth selection in yeast, the domain comes from the species named
Conditions: Saccharomyces cerevisiae (strain ATCC 204508 / S288c)

| Variant | abundance fitness |
| --- | --- |
| HESKLSILMCMFPAISKSKLQVHLLENNNDLDLTIGLLL [D10C] | -0.123 ± 0.11 |
| HESKLSILMFMFPAISKSKLQVHLLENNNDLDLTIGLLL [D10F] | -0.463 ± 0.18 |
| HESKLSILMPMFPAISKSKLQVHLLENNNDLDLTIGLLL [D10P] | -0.587 ± 0.12 |
| HESKLSILMQMFPAISKSKLQVHLLENNNDLDLTIGLLL [D10Q] | -0.183 ± 0.064 |
| HESKLSILMVMFPAISKSKLQVHLLENNNDLDLTIGLLL [D10V] | -0.336 ± 0.044 |
| HESKLSILMLMFPAISKSKLQVHLLENNNDLDLTIGLLL [D10L] | -0.441 ± 0.051 |
| HESKLSILMHMFPAISKSKLQVHLLENNNDLDLTIGLLL [D10H] | -0.145 ± 0.11 |
| HESKLSILMEMFPAISKSKLQVHLLENNNDLDLTIGLLL [D10E] | 0.052 ± 0.038 |
| HESKLSILMWMFPAISKSKLQVHLLENNNDLDLTIGLLL [D10W] | -0.691 ± 0.092 |
| HESKLSILMSMFPAISKSKLQVHLLENNNDLDLTIGLLL [D10S] | -0.299 ± 0.056 |
| HESKLSILMGMFPAISKSKLQVHLLENNNDLDLTIGLLL [D10G] | -0.099 ± 0.032 |
| HESKLSILMNMFPAISKSKLQVHLLENNNDLDLTIGLLL [D10N] | -0.086 ± 0.055 |
| HESKLSILMKMFPAISKSKLQVHLLENNNDLDLTIGLLL [D10K] | -0.191 ± 0.048 |
| HESKLSILMIMFPAISKSKLQVHLLENNNDLDLTIGLLL [D10I] | -0.12 ± 0.067 |
| HESKTSILMDMFPAISKSKLQVHLLENNNDLDLTIGLLL [L5T] | -0.338 ± 0.072 |
| HESKVSILMDMFPAISKSKLQVHLLENNNDLDLTIGLLL [L5V] | -0.002 ± 0.037 |
| HESKWSILMDMFPAISKSKLQVHLLENNNDLDLTIGLLL [L5W] | -0.779 ± 0.078 |
| HESKRSILMDMFPAISKSKLQVHLLENNNDLDLTIGLLL [L5R] | -0.906 ± 0.067 |
| HESKSSILMDMFPAISKSKLQVHLLENNNDLDLTIGLLL [L5S] | -0.856 ± 0.22 |
| HESKQSILMDMFPAISKSKLQVHLLENNNDLDLTIGLLL [L5Q] | -0.775 ± 0.081 |
| HESKLSILMDMKPAISKSKLQVHLLENNNDLDLTIGLLL [F12K] | -0.966 ± 0.2 |
| HESKLSILMDMRPAISKSKLQVHLLENNNDLDLTIGLLL [F12R] | -0.865 ± 0.11 |

| Variant | abundance fitness |
| --- | --- |
| HESKLSILMDMTPAISKSKLQVHLLENNNDLDLTIGLLL [F12T] | -0.446 ± 0.12 |
| HESKLSILMDMMPAISKSKLQVHLLENNNDLDLTIGLLL [F12M] | -0.548 ± 0.19 |
| HESKLSILMDMLPAISKSKLQVHLLENNNDLDLTIGLLL [F12L] | -0.644 ± 0.075 |
| HESKLSILMDMGPAISKSKLQVHLLENNNDLDLTIGLLL [F12G] | -0.905 ± 0.15 |
| HESKLSILMDMEPAISKSKLQVHLLENNNDLDLTIGLLL [F12E] | -0.884 ± 0.12 |
| HESKLSILMDMSPAISKSKLQVHLLENNNDLDLTIGLLL [F12S] | -0.808 ± 0.12 |
| HESKLSILMDMPPAISKSKLQVHLLENNNDLDLTIGLLL [F12P] | -0.611 ± 0.39 |
| HESKLSILMDMWPAISKSKLQVHLLENNNDLDLTIGLLL [F12W] | -0.596 ± 0.097 |
| HESKLSILMDMVPAISKSKLQVHLLENNNDLDLTIGLLL [F12V] | -0.9 ± 0.1 |
| HESKLSILMDMDPAISKSKLQVHLLENNNDLDLTIGLLL [F12D] | -1.07 ± 0.28 |
| HESKLSQLMDMFPAISKSKLQVHLLENNNDLDLTIGLLL [I7Q] | 0.137 ± 0.072 |
| HESKLSDLMDMFPAISKSKLQVHLLENNNDLDLTIGLLL [I7D] | 0.22 ± 0.28 |
| HESKLSWLMDMFPAISKSKLQVHLLENNNDLDLTIGLLL [I7W] | -0.406 ± 0.067 |
| HESKLSCLMDMFPAISKSKLQVHLLENNNDLDLTIGLLL [I7C] | 0.153 ± 0.26 |
| HESKLSSLMDMFPAISKSKLQVHLLENNNDLDLTIGLLL [I7S] | -0.114 ± 0.065 |
| HESKLSFLMDMFPAISKSKLQVHLLENNNDLDLTIGLLL [I7F] | -0.282 ± 0.076 |
| HESKLSALMDMFPAISKSKLQVHLLENNNDLDLTIGLLL [I7A] | 0.071 ± 0.042 |
| HESKLSVLMDMFPAISKSKLQVHLLENNNDLDLTIGLLL [I7V] | 0.095 ± 0.036 |
| HESKLSKLMDMFPAISKSKLQVHLLENNNDLDLTIGLLL [I7K] | 0.078 ± 0.096 |
| HESKLSGLMDMFPAISKSKLQVHLLENNNDLDLTIGLLL [I7G] | -0.544 ± 0.039 |
| HESKLSMLMDMFPAISKSKLQVHLLENNNDLDLTIGLLL [I7M] | 0.058 ± 0.071 |
| HESKLSTLMDMFPAISKSKLQVHLLENNNDLDLTIGLLL [I7T] | 0.059 ± 0.051 |

| Variant | abundance fitness |
| --- | --- |
| HESKLSPLMDMFPAISKSKLQVHLLENNNDLDLTIGLLL [I7P] | -0.633 ± 0.17 |
| HESKLSELMDMFPAISKSKLQVHLLENNNDLDLTIGLLL [I7E] | -0.158 ± 0.065 |
| HESKLYILMDMFPAISKSKLQVHLLENNNDLDLTIGLLL [S6Y] | 0.32 ± 0.45 |
| HESKLEILMDMFPAISKSKLQVHLLENNNDLDLTIGLLL [S6E] | -0.107 ± 0.053 |
| HESKLLILMDMFPAISKSKLQVHLLENNNDLDLTIGLLL [S6L] | -0.098 ± 0.042 |
| HESKLWILMDMFPAISKSKLQVHLLENNNDLDLTIGLLL [S6W] | -0.443 ± 0.074 |
| HESKLTILMDMFPAISKSKLQVHLLENNNDLDLTIGLLL [S6T] | -0.011 ± 0.045 |
| HESKLRILMDMFPAISKSKLQVHLLENNNDLDLTIGLLL [S6R] | -0.027 ± 0.033 |
| HESKLGILMDMFPAISKSKLQVHLLENNNDLDLTIGLLL [S6G] | -0.073 ± 0.032 |
| HESKLPILMDMFPAISKSKLQVHLLENNNDLDLTIGLLL [S6P] | -0.342 ± 0.072 |
| HESKLMILMDMFPAISKSKLQVHLLENNNDLDLTIGLLL [S6M] | -0.221 ± 0.09 |
| HESKLQILMDMFPAISKSKLQVHLLENNNDLDLTIGLLL [S6Q] | 0 ± 0.12 |
| HESKLAILMDMFPAISKSKLQVHLLENNNDLDLTIGLLL [S6A] | 0.041 ± 0.034 |
| HESKLHILMDMFPAISKSKLQVHLLENNNDLDLTIGLLL [S6H] | -0.38 ± 0.089 |
| HESKLSIWMDMFPAISKSKLQVHLLENNNDLDLTIGLLL [L8W] | -0.947 ± 0.13 |
| HESKLSIQMDMFPAISKSKLQVHLLENNNDLDLTIGLLL [L8Q] | -0.96 ± 0.33 |
| HESKLSIGMDMFPAISKSKLQVHLLENNNDLDLTIGLLL [L8G] | -0.913 ± 0.065 |
| HESKLSIDMDMFPAISKSKLQVHLLENNNDLDLTIGLLL [L8D] | -1.16 ± 0.42 |
| HESKLSIAMDMFPAISKSKLQVHLLENNNDLDLTIGLLL [L8A] | -1.02 ± 0.18 |
| HESKLSIFMDMFPAISKSKLQVHLLENNNDLDLTIGLLL [L8F] | -0.701 ± 0.18 |
